From the supplement of paper PMC12636428 come the findings set out here.

The data set deals with Saccharomyces cerevisiae. Nature of the data set: transcriptional activation domain activity (GFP:mCherry ratio, weighted mean of sorted bins, harmonized to initial dataset scale) (arbitrary fluorescence ratio units); higher = stronger transcriptional activation. As to conditions: beta-estradiol 1 µM; induction time 4 h. The gist of the method:
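For this assay, yeast diploids with a GFP reporter carried barcoded protein tiles at URA3, each fused to an estradiol-inducible synthetic transcription factor. Induction was a 1:5 dilution into SC with 1 uM beta-estradiol for 4 hours at 30 °C, followed by sorting into 8 bins by GFP:mCherry ratio and barcode sequencing. Tiles under 50 reads were dropped, and activation activity was calculated as the read-weighted mean of bin median fluorescence, averaged across barcodes and linearly mapped onto the initial dataset scale.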

Take “LLRAYGRCLAPFPELVTQAYTWFRSWGTSEFRPLTVALLLVTYMQRSPEIKAP”: the “transcriptional activation domain activity” value is 70700. Then “LLRFSLLLMFPWLVCLVSCFPCFPLLLPTSCATRFRFLHPFLTVSLLSLLFLC”, with 56800; and “LLRLLQCVFVAALLLVSKLCTFTEMMPDVVLRQFLVVAIDILFYGKLTIVPWN”, with 54600.

As to “LLRQQLVYTNHIYLYYFAIISNTLIRFIWILYIPARGPDIILRTFIAALFEML”, the “transcriptional activation domain activity” value turned out to be 54200. Then “LLRRIMRYRNMHLLLSYAVELGFLRAIILCGRPSLSKVHHHVRFFLRDLLPAS”, with 38800. The result for “LLRSRAYDDPAVFRIISALFQVPMRHKKNSVRGLLCVVWRVITWVYFQPRLPW” reads 54600; that for “LLSEESLRTMGLRTVKDILLRCASERAILTLVDFPLRVLVMVAQIRTGLWVRN”, 36800.

For the sequence “LLSGRLFLGFYAAKNILRLARAFAATRQVIYDLGKFYRSPLTAPDRIAHLFPS”, the “transcriptional activation domain activity” value came out at 47000.

As to “LLSLPNYFGIVFQVLKPEITTMYIAALDLCNLHTLYKAILFTLLALTWLILVF”, the “transcriptional activation domain activity” value is 50500. On to “LLSVCVGKNCTVPSPLNSFDRSFYPIGCTNLSNDIPGYSFLNDAMSEIHTFGD”, for which the “transcriptional activation domain activity” value came to 82000. The result for “LLTEHFLLRVFAVFTAYIVELWMLKVAYLGYYFQLRQYLSEKSRMIYIGTCVY” reads 63300; that for “LLTFKLHRLFVVSQKMEDEGVRKLILHLTCCLLPKPNRDSMEAICLFLRWVAS”, 83200. The result for “LLTFLLFSIFFFERLPHLYRSISLLLRPCFRLNIHFIFLILSRVFMYGSYGSF” reads 55300; that for “LLTFNLEVKRIWTLRWKLPKYLFVLNRYILPPFLFFEAFSNITYNLGKHVSRI”, 50800.

Regarding “LLTGSSALLLPVIWPRLSASLRFPVVLLLPLPYIFTYLCVYPPTPFSPHITPT”, the “transcriptional activation domain activity” value was determined as 59300. Turning to “LLTWMPTVAWPMYNRCFGSLIWIPIRYELIAIVILSIITFFFLFLAALISIQL”, the “transcriptional activation domain activity” value amounted to 43300. The result for “LLTYKLYRLWIVAAKITDDEKRKQCLHLTCCLLPKCHRDSLEILFYFLKWAGT” reads 50700. Consider “LLVANLTILDTFGLEESAIRIWNVCKPLGHLGQNALLILMLRLKDTMLIPWPL”, for which the “transcriptional activation domain activity” value stood at 72200. Turning to “LLVFGFEEHFFFFIFFFLVDGSAFCMFCDVFHFYVCCYVPHLLCLTLVIAGVS”, the “transcriptional activation domain activity” value turned out to be 73000. On to “LLVFICAAPYAAYREGNNLIVSSYFCSSFLVFNFYMRLDCGLSWMKHTLLFIV”, for which the “transcriptional activation domain activity” value is 44700.

On to “LLVLFACQIICETIVIGITSNAFSVVVLPPYFTGCLPGNIKPFAWVYWLPMLL”, for which the “transcriptional activation domain activity” value came out at 59400. Then “LLVLLLVLLLVLLLILLLILLILLVYLLLLLLLVLLFFLLLLLLLFTFILHFL”, with 46200; and “LLVLLVFVADTLHMMGTTQFYWSMLVLCRRSDAAMCEAGLSWGSSISFPMNYV”, with 42600; and “LLVLYGLTWAFNLISCMLISTNNGNYISCILGLFNCVFVYTLTKMILYLYFIE”, with 57000. The result for “LLVLYLVLSYLKHSHMEGLGEFMIKFFEECNVDPFSKVFRGGHYKESVFEGVY” reads 76100; that for “LLVRIIGRCGFLGASFQVALLSDYISIMTLHIYWFYAVAARIYFWQLSILHSL”, 43100. On to “LLVRLRKEYYLALFIFWRVGYNVLLGLMLRSQSDWNLLVRFAKRYGFGQNAGK”, for which the “transcriptional activation domain activity” value stood at 48800. For the sequence “LLVTLMQVPDTDQVVLFNKVLSVIVLVMAHHHELGGPRFDQRPFLRLFSSILA”, the “transcriptional activation domain activity” value worked out at 43800.

Take “LLWFYFLFLFCIFCWWLRYASSLVPNICHIHVIHDLADAFMHIRFVLFISILS”: the “transcriptional activation domain activity” value came to 72300. Then “LLWGLALVCAFAFGRRRRRWWWWWWWWWLLLLLLLFIFFFWICLSLRFLLWTR”, with 54100; and “LLWSYLLPLFFSLLNELCKRFLPFPLFPLFFYIPCAFYPSPTLSVCSHPLLFI”, with 61500; and “LLYALMNFSRIFSSGHSFGRKIIMFFEFVYLLLNFLFGFVSLGHFYFAFHFLI”, with 37000. Then “LLYCNQIYLICPYVVNNKVQRQVSPRDMLIVLEAALKITSIYKILTYVYFENI”, with 58700. As for “LLYHYPMCSVCVLCCVLFFSHLFSIFHVLSVLCCTFFWQCLSFFHYLIPLFLY”, the “transcriptional activation domain activity” value turned out to be 62300.

For the sequence “LLYLCRDILMAVFAWSLAIQIDPFFTNVVIRSILSPTIAKTFRWMSWCVYWWF”, the “transcriptional activation domain activity” value was 57700.

With “LLYLGCRWCTLIAIIFHFLGFDGGHRIDCQFMGYFSFTCASALIVLRIVAFWA”, the “transcriptional activation domain activity” value stood at 66900. Then “LLYLLLLLRKVSVMLCFIDLLIFGIFLCFLSLLLFLSLFFLFLFLLVFSEEFF”, with 37600. As to “LLYLPAVLEIYQDVHRSDLSSTVSWETFVAKIFEWMELQYVWPIAGKLLVTIF”, the “transcriptional activation domain activity” value was determined as 74800. Then “LLYVMALLMWLFAIAILFPPSALTVVRHDFLEQIPQVVPNLDVAYGRNIEGVK”, with 41800; and “LMDSGGPDVRPPPKRARKAINCEPCRNSKLKCDRNRPCSSCVLRGTTSQCYQG”, with 43700.

On to “LMFLVLIVSNLRLMIENFRKYGVLICIRCHDYRRQDVVYGSILYFLVPCHLFV”, for which the “transcriptional activation domain activity” value was found to be 73100. Then “LMGLDELHLRVLSSSSDDPQERLNADKVLKLLTKRRHWVLVVLLLGNVIVNES”, with 35800. For the sequence “LMILMIINFIILNIPVAVILLIYFVFKIGFYVFIWKRIRFISILLRATVSHLR”, the “transcriptional activation domain activity” value is 62900.

With “LMLCAGHGILIALVEQSGIDIKPILVFCLITYTLCQIGMCYSCYLYDFILLFF”, the “transcriptional activation domain activity” value stood at 50100. As for “LMLQRLDIIRQILYLYRDPHLQIVLNRYYKSFNRRKIFLMNPVINALSNMPYF”, the “transcriptional activation domain activity” value worked out at 47500. Then “LMVDEPFEHRLFFLLLFQEGNVCQAQSFQLSGFECMCMVSSQFFFLVWVLYFM”, with 45600. Then “LNCLDLSGIDCCLFFMALRLEVLYSWFLFLAWQLLCTHPALLAFAFGFLGFLI”, with 51600. The result for “LNDDDIEKILQPNDIFTTDRTDASTTSSTAIEDIINPSLDPQSAASPVPSSSF” reads 81400.

As for “LNGRRMMHEPLVYDMYEPQTPLIIIARVGVRLVFIVAKIGELPHCFIDEPPQQ”, the “transcriptional activation domain activity” value was 23200.

On to “LNILILGSVLTDFDTLLRPETMQWNPPLGVWLIWWMQWQMFIPLLILQFLNLY”, for which the “transcriptional activation domain activity” value stood at 55400. The result for “LNILTSVWAVPVVITLIQALLVMRVCMLFCFNLRVTLCLWALLFASATVSVVL” reads 51200; that for “LNKVCCIFCFLFSFYLLSFYSPFYFCFAFILLLSFFFFFFFFLLLLYFLLLSI”, 48600. The result for “LNLGWRLMHFKVHFARIGVIVHGPQYGELTDWDCSSAHRGDILGFPKAQLLFE” reads 25100; that for “LNLRRPLAFGGMATLLTYLIVPIYFSGVCYRLRLTLPPFLFLILRVSFELFVL”, 67800.

In the case of “LNMLGLALAASGHFPYAVKYDGAIVVANFNMAILMRNEVFGRLLYLLVNTLFA”, the “transcriptional activation domain activity” value turned out to be 71600. As to “LNPDYIVGLSSLILVMCYIYKACYVSLLLSMHPLILLCMLCSSFTFIAIIVMI”, the “transcriptional activation domain activity” value was 47700.

For the sequence “LNRAARRSTPASRTRREGAIGARVRRRERESERARARTKMGRRSCLRVSAAAT”, the “transcriptional activation domain activity” value was determined as 61600.

Regarding “LNRWQKLLSWDVAYQIEGMLRRLLVDVKEMLSLMARIRAMILRYDSHYTAAFL”, the “transcriptional activation domain activity” value stood at 71500.

On to “LNTFLDSFIFQLFPMVADLWIAAAYFFLYFDAFYSLIIIATTWLYIYITIYMA”, for which the “transcriptional activation domain activity” value was 58800. As for “LNVLLGFLLLCFPNLERMVLNFGTVIAGPNHPGTLRKGYCEHCKLGVNVLEFD”, the “transcriptional activation domain activity” value worked out at 62000. For “LNVQLVYLIHSVLSIVIDFTFKRVEGDMDEWVVSGFSDRFERRITFARLYCNK”, the “transcriptional activation domain activity” value stood at 49000.

With “LNWYFLGTFMYFLYGESIIYYFKHVLLVDRILLPLATHHRFISFMLYIIGFVF”, the “transcriptional activation domain activity” value came to 74300. Then “LNWYWLASTMYFLYGESVIYYFKHIVLVDKVLLPLATHHRFISFLLYLMGFVF”, with 93000; and “LNWYWLATTMYFLYGESVIYYFKHIVLVDKVLLPLATHHRFISFILYVFGFVF”, with 71900.

With “LNWYWLTTTMYFLYGESMLFYFKHIVLVGSVLTPLATHHRFISFTLYIFGFIF”, the “transcriptional activation domain activity” value stood at 42000. “LNYRKDIDAWHKSLMGTLARGPTLWTFWILSCLDKECFWNWQCYLGYMWPGLF”: the “transcriptional activation domain activity” value was 72100.

Take “LPDKGKSTEIMTSKLVGRHEFLPVPDFEDQIRRLYENLLISLLSDTQLLIVAW”: the “transcriptional activation domain activity” value was 55800.

For the sequence “LPDLQWLVKFLVVAAHETGKNIVCRRAPGNLLSGNLVTLVSNVVLQRSPKRSY”, the “transcriptional activation domain activity” value came out at 47900. As for “LPFYFFLHCTLSMIPSIHSPSFLQSYICFMLIPPLPLMFIVVFHPLYFFWLFL”, the “transcriptional activation domain activity” value was determined as 15000. The result for “LPGGKYLFMVMKNNGGGSEKFALVLFDVEAQMTLLKASRILLLRARYITPKTT” reads 51400. Consider “LPHFPIIHPSLLDLDLDSLQRYTNEDGYDDAENAQLFDRLSQGTDKEYDYEHY”, for which the “transcriptional activation domain activity” value is 71500.

For “LPKDANLCFGKDFLAMYFYCTAVPTLFMFMVSERLYNALMQLAVFLLLCILHL”, the “transcriptional activation domain activity” value is 65000. For the sequence “LPLIQRFLIIAPAVIFYSYVYIVPTARRLQLRVCIRNWLGRWYVHLPVLSRSH”, the “transcriptional activation domain activity” value came to 57400. Then “LPLLHRELFLKKYFEPIYGPWNPNIALASDQTGINSAFEIPITSAFSAHTEPK”, with 41700.
